Experimental data: article PMC5477544, “Structural and mechanistic basis of differentiated inhibitors of the acute pancreatitis target kynurenine-3-monooxygenase” (Nature Communications, 2017)

Substrate: Nc1ccccc1C(=O)CC(N)C(=O)O
Assay: purified protein, by the assay type
Details: other: human KMO, 200 μM NADPH

B1: human KMO (Homo sapiens) (protein)
chain: MDSSVIQRKKVAVIGGGLVGSLQACFLAKRNFQIDVYEAREDTRVATFTRGRSINLALSHRGRQALKAVGLEDQIVSQGIPMRARMIHSLSGKKSAIPYGTKSQYILSVSRENLNKDLLTAAEKYPNVKMHFNHRLLKCNPEEGMITVLGSDKVPKDVTCDLIVGCDGAYSTVRSHLMKKPRFDYSQQYIPHGYMELTIPPKNGDYAMEPNYLHIWPRNTFMMIALPNMNKSFTCTLFMPFEEFEKLLTSNDVVDFFQKYFPDAIPLIGEKLLVQDFFLLPAQPMISVKCSSFHFKSHCVLLGDAAHAIVPFFGQGMNAGFEDCLVFDELMDKFSNDLSLCLPVFSRLRIPDDHAISDLSMYNYIEMRAHVNSSWFIFQKNMERFLHAIMPSTFIPLYTMVTFSRIRYHEAVQRWHWQKKVINKGLFFLGSLIAISSTYLLIHYMSPRSFLRLRRPWNWIAHFRNTTCFPAKAVDSLEQISNLISR
Km: 2 µM
kcat: 0.24 s⁻¹
